Experimental findings from patent US10836794B2, “Group of peptides for treating female sexual dysfunction” (“IVIX” Ltd., priority 2016, dated 2020) are described below.

Data set [1] is described as follows: Stability of liquid pharmaceutical forms (peptide 0.2 %, benzalkonium chloride 0.01 %, water) during storage; single and total impurities. The format is physicochemical. From the text: Investigations of the Stability of Pharmaceutical Forms Containing Peptides Having the Property of Stimulating the Genital and Sexual Functions
This experiment investigated the stability of compositions containing peptides according to the invention. The results of the investigations are illustrated by the example of several peptides according to the invention containing hydroxyproline, in particular Thr-Lys-Hyp […], Thr-Lys-Hyp-Arg-Hyp (SEQ ID NO: 13), Thr-Lys-Hyp-Arg-Hyp-Phe and Thr-Lys-Hyp-Arg-Hyp-Gly-Hyp (SEQ ID NO: 14).
The peptides described in RU2507212 were also obtained, in particular Thr-Lys-Pro, Thr-Lys-Pro-Arg-Pro (SEQ ID NO: 6), Thr-Lys-Pro-Arg-Pro-Phe (SEQ ID NO: 7) and Thr-Lys-Pro-Arg-Pro-Gly-Pro (SEQ ID NO: 1).
From the compounds obtained, a liquid pharmaceutical form (a solution) was prepared, including the peptide and the preservative benzalkonium chloride with the following ratio of components: 0.2 and 0.01 mass %, respectively, water the rest. Samples were placed in storage at two temperature regimes, namely, +4° C. and +25° C. Investigation of the stability of the peptides was carried out after 1, 3, 6, 12, and 24 months of storage. In the investigation of the samples for stability, the quantity of single impurities and the total quantity of impurities were evaluated, testifying to the degradation of the peptides. The pharmaceutical requirements of the company for impurities are: any single impurity, not more than 1.5%; total content of impurities, not more than 3.0%. If the content of impurities exceeded the above indicated values, the pharmaceutical form was deemed to have failed the test for stability.

The next data set relates to female rats. The data set is described as follows: Efficacy in vivo on preclinical model (Lordoz test): proceptive behavior of ovarioectomized, hormonally stimulated females. Particulars: 100 mcg/rat, progesterone 0.5 mg/rat. As for the experimental part:
Investigation of the Efficacy of the Peptides of the Invention as a Means of Stimulating the Genital and Sexual Functions
In order to confirm the efficacy as a means of stimulating the genital and sexual functions, peptides according to the invention were synthesized, in particular the tripeptide Thr-Lys-Hyp, the pentapeptide Thr-Lys-Hyp-Arg-Hyp (SEQ ID NO: 12), and the hexapeptide Thr-Lys-Hyp-Arg-Hyp-Phe (SEQ ID NO: 13), and tests were performed as to the efficacy in vivo on the relevant preclinical model (Lordoz test). Furthermore, the efficacy of the group of peptides Thr-Lys-Pro, Thr-Lys-Pro-Arg-Pro (SEQ ID NO: 6), and Thr-Lys-Pro-Arg-Pro-Phe (SEQ ID NO: 7) was also investigated.
The efficacy of the aforementioned groups of peptides was investigated in a dose of 100 mcg/rat with respect to the sexual behavior of female rats. The sexual behavior was registered over the course of 0-16 days in ovarioectomized, hormonally stimulated females in the case of direct contact with sexually active males and in the case when no such contact was possible. […] The results testify to an increase in sexual motivation under the action of the peptides Thr-Lys-Hyp, Thr-Lys-Hyp-Arg-Hyp (SEQ ID NO: 12), and Thr-Lys-Hyp-Arg-Hyp-Phe (SEQ ID NO: 13).

The mark [2] stands for this setting: stored for 1 month at +4° C., solution 0.2 mass % peptide, 0.01 mass % benzalkonium chloride.
The mark [3] stands for this setting: stored for 1 month at +25° C., solution 0.2 mass % peptide, 0.01 mass % benzalkonium chloride.
Where [4] appears, read: stored for 12 months at +25° C.
The mark [5] stands for this setting: stored for 24 months at +25° C.

Non-standard residues stand in square brackets, D forms with d. No end group written: not given here. Hyp = O=C(O)[C@@H]1C[C@@H](O)CN1

Take “Thr-Lys-Pro-Arg-Pro-Phe (TKPRPF; not fully specified; printed as Thr-Lys-Pro-Arg-Pro-Phe) [hexapeptide described in RU2507212, comparison peptide, reference compound]”: the Single impurities worked out at 0.054% in data set [1] (setting [2]); 0.11% in data set [1] (setting [3]); 0.09% in data set [1] (stored for 3 months at +4° C.); 0.9% in data set [1] (stored for 3 months at +25° C.); 0.5% in data set [1] (stored for 6 months at +4° C.); 1.9% in data set [1] (stored for 6 months at +25° C.). Moreover, the Single impurities is listed as 0.9% in data set [1] (stored for 12 months at +4° C.) and 1.6% in data set [1] (stored for 24 months at +4° C.). Also, the Total impurities is 0.17% in data set [1] (setting [2]); 0.19% in data set [1] (setting [3]); 0.18% in data set [1] (stored for 3 months at +4° C.); 1.1% in data set [1] (stored for 3 months at +25° C.); 1.1% in data set [1] (stored for 6 months at +4° C.); 3.5% in data set [1] (stored for 6 months at +25° C.). The Total impurities in data set [1] (stored for 12 months at +4° C.) is listed as 1.3%; in data set [1] (stored for 24 months at +4° C.) it was 2,9%. Besides, the “Number of proceptive behavior acts” value in the data set with female rats (day 0 of giving the drug) was found to be 14 ± 4; in the data set on female rats (day 5 of giving the drug), 16 ± 4; in the data set on female rats (day 11 of giving the drug), 19 ± 4; with female rats (day 16 of giving the drug), 26 ± 4.
Turning to Thr-Lys-[Hyp], the Single impurities in data set [1] (setting [2]) amounted to 0.034%; in data set [1] (setting [3]) it was 0.052%; in data set [1] (stored for 3 months at +4° C.), 0.035%; in data set [1] (stored for 3 months at +25° C.), 0.052%; in data set [1] (stored for 6 months at +4° C.) it was 0.036%; in data set [1] (stored for 6 months at +25° C.) it was 0.2%. Moreover, the Single impurities stood at 0.09% in data set [1] (stored for 12 months at +4° C.), 0.3% in data set [1] (setting [4]), 0.1% in data set [1] (stored for 24 months at +4° C.) and 0.8% in data set [1] (setting [5]). Moreover, the Total impurities in data set [1] (setting [2]) turned out to be 0.09%; in data set [1] (setting [3]), 0.11%; in data set [1] (stored for 3 months at +4° C.) it was 0.11%; in data set [1] (stored for 3 months at +25° C.) it was 0.9%; in data set [1] (stored for 6 months at +4° C.) it was 0.2%; in data set [1] (stored for 6 months at +25° C.) it was 1%. For the same substance, the Total impurities in data set [1] (stored for 12 months at +4° C.) is reported as 0.3%; in data set [1] (setting [4]), 1.2%; in data set [1] (stored for 24 months at +4° C.), 0.9%; in data set [1] (setting [5]) it was 1.8%. In addition, the “Number of proceptive behavior acts” value worked out at 12 ± 4 in the data set with female rats (day 0 of giving the drug), 25 ± 4 in the data set with female rats (day 5 of giving the drug), 24 ± 4 in the data set on female rats (day 11 of giving the drug) and 26 ± 4 with female rats (day 16 of giving the drug).
